Laboratory results taken from article PMC3123307, “Identification of the Allosteric Regulatory Site of Insulysin” (PLoS ONE, 2011).
Changes are numbered by the printed parent chain. Names and notes keep the numbering of the source. Each block holds one molecule with its values, some of them ahead of it.

Tests used:
[1] = biological target: Native rat insulin degrading enzyme (rIDE, insulysin), wild type, residues 42-1019 (rat) (UniProt P35559)
[2] = biological target: the molecule itself; test: crystal structure; wild type rIDE and rIDE-E111F, no substrate peptide added; enzyme at 8 mg/ml in 50 mM Tris 7.4, 1 mM DTT, 100 mM NaCl; sitting drop, 100 mM sodium citrate pH 6.5, 100 mM ammonium acetate, 20% PEG 4000, 20 or 22°C; space group C2, one molecule per asymmetric unit

enzyme activity: activation by bradykinin of hydrolysis of 10 µM Abz-…-EDDnp [1]: 4 fold
Molecule: bradykinin (from UniProt P01042 381-389) (peptide)

B1: Native rat insulin degrading enzyme (rIDE, insulysin), wild type, residues 42-1019 (enzyme, UniProt P35559 42-1019, looked up)
chain: MNNPAIQRIEDHIVKSPEDKREYRGLELANGIKVLLISDPTTDKSSAALDVHIGSLSDPPNIPGLSHFCEHMLFLGTKKYPKENEYSQFLSEHAGSSNAFTSGEHTNYYFDVSHEHLEGALDRFAQFFLCPLFDASCKDREVNAVDSEHEKNVMNDAWRLFQLEKATGNPKHPFSKFGTGNKYTLETRPNQEGIDVREELLKFHSTYYSSNLMAICVLGRESLDDLTNLVVKLFSEVENKNVPLPEFPEHPFQEEHLKQLYKIVPIKDIRNLYVTFPIPDLQQYYKSNPGHYLGHLIGHEGPGSLLSELKSKGWVNTLVGGQKEGARGFMFFIINVDLTEEGLLHVEDIILHMFQYIQKLRAEGPQEWVFQECKDLNAVAFRFKDKERPRGYTSKIAGKLHYYPLNGVLTAEYLLEEFRPDLIDMVLDKLRPENVRVAIVSKSFEGKTDRTEQWYGTQYKQEAIPEDVIQKWQNADLNGKFKLPTKNEFIPTNFEILALEKDATPYPALIKDTAMSKLWFKQDDKFFLPKACLNFEFFSPFAYVDPLHCNMAYLYLELLKDSLNEYAYAAELAGLSYDLQNTIYGMYLSVKGYNDKQPILLKKITEKMATFEIDKKRFEIIKEAYMRSLNNFRAEQPHQHAMYYLRLLMTEVAWTKDELKEALDDVTLPRLKAFIPQLLSRLHIEALLHGNITKQAALGVMQMVEDTLIEHAHTKPLLPSQLVRYREVQLPDRGWFVYQRRNEVHNNCGIEIYYQTDMQSTSENMFLELFCQIISEPCFNTLRTKEQLGYIVFSGPRRANGIQGLRFIIQSEKPPHYLESRVEAFLITMEKAIEDMTEEAFQKHIQALAIRRLDKPKKLSAECAKYWGEIISQQYNYDRDNIEVAYLKTLSKDDIIKFYKEMLAVDAPRRHKVSVHVLAREMDSCPVVGEFPSQNDINLSEAPPLPQPEVIHNMTEFKRGLPLFPLVKPHINFMAAKL
notes: Insulin-degrading enzyme (insulysin, EC 3.4.24.56), rat; begins at methionine 42 and extends through the native C-terminal residue leucine 1019 (the same paragraph also prints 'residues 42-1016'); In the crystal there is one molecule per asymmetric unit, and the dimer is formed by crystal symmetry; Expressed from pFastBac HTb; The model contains residues 42-963 and 980-1011; also called wild type …
binding result [2]: binds

B2: rat insulin degrading enzyme E111F mutant (rIDE-E111F), residues 42-1019 (enzyme, UniProt P35559 42-1019, looked up)
chain: B1 chain with E70F
notes: Insulin-degrading enzyme (insulysin), rat; begins at methionine 42 and extends through leucine 1019; catalytically compromised E111F mutant; No zinc ion in the crystal structure; The model contains residues 42-965 and 978-1011; also called E111F-rIDE; E111F IDE mutant; not shown: His6, N-terminal, cleaved
binding result [2]: binds
